Reference: US20250340857A1 (SEISMIC THERAPEUTIC, published 2025)

Target: Human IgE antibody (human)
Test: cell-based or functional assay

Row | Binder | EC50 CE-SDS IgE [nM] | EC50 MSD IgE [nM]
1 | FP146 (Fc fusion) DKTHTCPPCPAPEAAGAPSVFLFPPKPKDTLMISRTPEVTCVVVDVSHEDPEVKFNWYVDGVEVHNAKTKPREEQQNSTYRVVSVLTVLHQDWLNGKEYKCKVSNKALKAPIEKTISKAKGQPREPQVYTLPPSRDELTKNQVSLTCLVKGFYPSDIAVEWESNGQPENNYKTTPPVLDSDGSFFLYSKLTVDKSRWQQGNVFSCSVMHEALHNHYTQKSLSLSPGGGGSGGGGSGGGGSTALGRRKAEDRIKETLWADGVKIDEKDFEHIKSSHEDYFAVEYGKGSGYYDVNKKMDSEDTALCVGAVVTNMFHWWVDQNRENIEKFKKQDPENNGVMKFEGVKEATVDELNEFYRDNRDNYADQSRFFDLIKSHFGNKALNPEELFELYFNGFYYGSSHRYIEDNEPAQNNLFSKVLENNKLLNPERSYGIDGFSNNVINALKSHKVLGLVYTTPLRYRHIISMWGADIDQDGKVKAIYVTDSDDREITFNDNSARRIGMIRYDVLVDDNGNIRFTGKGATHKEEGAIYAGLYSLSRGDEVWEDYFKKYPEVQENL | 1.58 | –
2 | FP150 (Fc fusion) DKTHTCPPCPAPEAAGAPSVFLFPPKPKDTLMISRTPEVTCVVVDVSHEDPEVKFNWYVDGVEVHNAKTKPREEQQNSTYRVVSVLTVLHQDWLNGKEYKCKVSNKALKAPIEKTISKAKGQPREPQVYTLPPSRDELTKNQVSLTCLVKGFYPSDIAVEWESNGQPENNYKTTPPVLDSDGSFFLYSKLTVDKSRWQQGNVFSCSVMHEALHNHYTQKSLSLSPGGGGSGGGGSGGGGSTALGRRKAEDRIKETLWADGVKIDEKDFEHIKSSHEDYFAVEYGKGSGYYDVNKKMDSEDTALCVGAVVTNMFHWWVDQNRENIEKFKKQDPENNGVMKFEGVKEATVDELNEFYRDNRDNYADQSRFFDLIKKHFGNKALNPEELFELYFNGFYYGSSHRYIEDNEPAQGNLFSKVLENNKLLNPERSYGIDGFSNNVINALKSHKVLGLVYTTPLRYRHIISMWGADIDQDGKVKAIYVTDSDDREITFNDNSKRRIGMIRYDVLVDDNGNIRFTGKGATHKEEGAIYAGLYSLSRGDEVWEDYFKKYPEVQENL | 1.15 | 2.2
3 | FP149 (Fc fusion) DKTHTCPPCPAPEAAGAPSVFLFPPKPKDTLMISRTPEVTCVVVDVSHEDPEVKFNWYVDGVEVHNAKTKPREEQQNSTYRVVSVLTVLHQDWLNGKEYKCKVSNKALKAPIEKTISKAKGQPREPQVYTLPPSRDELTKNQVSLTCLVKGFYPSDIAVEWESNGQPENNYKTTPPVLDSDGSFFLYSKLTVDKSRWQQGNVFSCSVMHEALHNHYTQKSLSLSPGGGGSGGGGSGGGGSTALGRRKAEDRIKETLWADGVKIDEKDFEHIKSSHEDYFAVEYGKGSGYYDVNKKMDSEDTALCVGAVVTNMFHWWVDQNRENIEKFKKQDPENNGVMKFEGVKEATVDELNEFYRDNRDNYADQSRFFDLIKKHFGNKALNPEELFELYFNGFYYGSSHRYIEDNEPAQNNLFSKVLENNKLLNPERSYGIDGFSNNVINALKSHKVLGLVYTTPLRYRHIISMWGADIDQDGKVKAIYVTDSDDREITFNDNSKRRIGMIRYDVLVDKNGNIRFTGKGATHKEEGAIYAGLYSLSRGDEVWEDYFKKYPEVQENL | 0.19 | 0.708
4 | FP147 (Fc fusion) DKTHTCPPCPAPEAAGAPSVFLFPPKPKDTLMISRTPEVTCVVVDVSHEDPEVKFNWYVDGVEVHNAKTKPREEQQNSTYRVVSVLTVLHQDWLNGKEYKCKVSNKALKAPIEKTISKAKGQPREPQVYTLPPSRDELTKNQVSLTCLVKGFYPSDIAVEWESNGQPENNYKTTPPVLDSDGSFFLYSKLTVDKSRWQQGNVFSCSVMHEALHNHYTQKSLSLSPGGGGSGGGGSGGGGSTALGRRKAEDRIKETLWADGVKIDEKDFEHIKSSHEDYFAVEYGKGSGYYDVNKKMDSEDTALCVGAVVTNMFHWWVDQNRENIEKFKKQDPENNGVMKFEGVKEATVDELNEFYRDNRDNYADQSRFFDLIKKHFGNKALNPEELFELYFNGFYYGSSQRYIEDNEPAQNNLFSKVLENNKLLNPERSYGIDGFSNNVINALKSHKVLGLVYTTPLEYRHIISMWGADIDQDGKVKAIYVTDSDDREITFNDNSKRRIGMIRYDVLVDDNGNIRFTGKGATHKEEGAIYAGLYSLSRGDEVWEDYFKKYPEVQENL | 3.1 | –
